Series [1] concerns recombinant human macrophage stimulating protein (MSP).
Series [2] relates to recombinant murine macrophage stimulating protein (MSP).

Sequence of human kallikrein (Enzyme System Products) (chain, as listed by the source): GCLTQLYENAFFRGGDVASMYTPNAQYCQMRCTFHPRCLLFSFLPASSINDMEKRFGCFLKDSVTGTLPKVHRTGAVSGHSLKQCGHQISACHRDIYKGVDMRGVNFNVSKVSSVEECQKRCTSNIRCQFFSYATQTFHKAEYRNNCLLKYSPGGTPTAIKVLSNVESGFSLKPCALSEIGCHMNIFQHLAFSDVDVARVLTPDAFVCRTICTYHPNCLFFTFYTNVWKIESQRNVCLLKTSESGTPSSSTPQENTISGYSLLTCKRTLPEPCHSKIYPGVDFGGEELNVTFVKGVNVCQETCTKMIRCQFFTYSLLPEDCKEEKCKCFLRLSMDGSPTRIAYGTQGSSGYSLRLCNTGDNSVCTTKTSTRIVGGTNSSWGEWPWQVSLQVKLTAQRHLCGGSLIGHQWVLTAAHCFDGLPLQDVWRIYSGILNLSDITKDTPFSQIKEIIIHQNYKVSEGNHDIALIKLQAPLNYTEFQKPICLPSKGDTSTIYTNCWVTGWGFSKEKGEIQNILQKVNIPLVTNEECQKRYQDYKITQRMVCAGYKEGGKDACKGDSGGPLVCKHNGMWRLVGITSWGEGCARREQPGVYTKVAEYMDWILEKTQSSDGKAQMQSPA
Sequence of murine MSP C677A analog (chain, as listed by the source C677A): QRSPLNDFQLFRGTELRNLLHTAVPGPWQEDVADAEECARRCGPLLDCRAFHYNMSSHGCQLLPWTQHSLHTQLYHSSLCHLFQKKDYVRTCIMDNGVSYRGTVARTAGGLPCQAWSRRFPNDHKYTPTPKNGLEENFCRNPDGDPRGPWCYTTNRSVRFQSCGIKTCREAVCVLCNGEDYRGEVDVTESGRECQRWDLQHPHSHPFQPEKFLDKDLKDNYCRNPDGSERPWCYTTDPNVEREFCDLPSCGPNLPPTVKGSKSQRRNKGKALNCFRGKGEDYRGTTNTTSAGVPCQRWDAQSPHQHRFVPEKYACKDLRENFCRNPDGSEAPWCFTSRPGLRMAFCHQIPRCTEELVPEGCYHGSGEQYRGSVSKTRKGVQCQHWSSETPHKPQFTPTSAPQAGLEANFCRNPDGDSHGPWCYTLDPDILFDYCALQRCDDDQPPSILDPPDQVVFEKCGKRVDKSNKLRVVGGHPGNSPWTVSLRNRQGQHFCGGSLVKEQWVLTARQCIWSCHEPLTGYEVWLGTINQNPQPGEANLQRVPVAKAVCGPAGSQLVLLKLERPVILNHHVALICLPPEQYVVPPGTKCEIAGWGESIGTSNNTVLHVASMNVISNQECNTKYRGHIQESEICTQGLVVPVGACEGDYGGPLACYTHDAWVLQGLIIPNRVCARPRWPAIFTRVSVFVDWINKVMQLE
Sequence of human MSP C672A analog (chain, as listed by the source C672A): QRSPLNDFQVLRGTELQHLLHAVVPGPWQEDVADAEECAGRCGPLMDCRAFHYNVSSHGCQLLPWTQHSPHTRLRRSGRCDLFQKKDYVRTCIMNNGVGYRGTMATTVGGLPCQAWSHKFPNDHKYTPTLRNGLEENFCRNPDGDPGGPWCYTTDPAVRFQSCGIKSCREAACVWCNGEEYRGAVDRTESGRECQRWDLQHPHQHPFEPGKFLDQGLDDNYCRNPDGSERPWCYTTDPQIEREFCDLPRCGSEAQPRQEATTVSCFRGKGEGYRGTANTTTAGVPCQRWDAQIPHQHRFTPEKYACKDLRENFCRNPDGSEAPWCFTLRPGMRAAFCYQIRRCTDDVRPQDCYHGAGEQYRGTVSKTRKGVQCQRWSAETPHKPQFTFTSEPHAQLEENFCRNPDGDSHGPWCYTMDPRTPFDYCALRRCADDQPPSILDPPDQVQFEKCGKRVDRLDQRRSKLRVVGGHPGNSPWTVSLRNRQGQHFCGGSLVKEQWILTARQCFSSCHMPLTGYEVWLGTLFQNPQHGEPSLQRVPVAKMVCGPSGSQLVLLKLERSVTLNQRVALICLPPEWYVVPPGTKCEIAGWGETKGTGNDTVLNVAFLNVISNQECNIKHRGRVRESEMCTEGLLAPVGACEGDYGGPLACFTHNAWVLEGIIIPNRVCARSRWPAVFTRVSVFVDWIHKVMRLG

In the case of “human kallikrein (Enzyme System Products)”, the “cleavage of proMSP analog seen by SDS-PAGE under reducing conditions” value in the series on human MSP C672A analog is “Kallikrein treatment efficiently cleaves proMSP or proMSP analog between the α and β subunits”; in the series with murine MSP C677A analog, “Kallikrein treatment efficiently cleaves proMSP or proMSP analog between the α and β subunits”. Also, the “cleavage of proMSP seen by SDS-PAGE under reducing conditions” value in series [1] was “Kallikrein treatment efficiently cleaves proMSP or proMSP analog between the α and β subunits”; in series [2], “Kallikrein treatment efficiently cleaves proMSP or proMSP analog between the α and β subunits”.

These data come from patent US20040260064.
